Experiments:
[1] = target: T1, GST alone (UniProt P08515 1-218 = GST); experiment: GST pulldown from lysates of myc-haspin-transfected cells
T1 construct: Control protein
Protocol: (§1) For immunoprecipitation, cells are suspended in 50 mM Tris/0.5 M NaCl/1% Triton X-100/1% DOC/0.1% SDS/2 mM EDTA, pH 7.4 (buffer L) with 1 μg/ml pepstatin/1 μg/ml leupeptin/1 μg/ml antipain/1 μg/ml chymostatin/1 mM phenylmethylsulphyl fluoride/1 mM NaF/0.1 μM okadaic acid and lysed by shearing 15 times through a 21 gauge needle. Insoluble material is removed by centrifugation for 15 min at 13,000 rpm and the lysates precleared with protein G-Sepharose and concentrations equalized based on Bradford assay (Bio-Rad). Lysates are incubated with antibodies for 1.5 h at 4° C. before addition of protein G-Sepharose for a further 1.5 h. Beads are washed 4 times with buffer L and thrice with Hepes-buffered saline, pH 7.4 (HBS). For GST pulldown assays, cells are lysed in 20 mM Tris/1% Triton X-100/1 mM EDTA/1 mM DTT, pH 7.4 (buffer T) containing 0.3 M NaCl and protease and phosphatase inhibitors as above, clarified, and precleared with glutathione-Sepharose. […]
(§2) To examine the interaction of haspin with H3, we utilized the H3-GST fusion proteins in “pulldown” assays from lysates of myc-haspin-transfected cells. In the conditions of the assay, myc-haspin bound to H3-GST, whereas the binding of myc-haspin to GST alone, H2B-GST and H4-GST was not detected.

[2] = target: T2, H2B-GST (residues 1-35 of human H2B fused to GST) (human, UniProt P62807 2-36); experiment: as above
T2 construct: range 1-35; not shown: glutathione S-transferase (GST) encoded by vector pETGEX-CT
Protocol: as §1, §2

T1 sequence (P08515 whole entry): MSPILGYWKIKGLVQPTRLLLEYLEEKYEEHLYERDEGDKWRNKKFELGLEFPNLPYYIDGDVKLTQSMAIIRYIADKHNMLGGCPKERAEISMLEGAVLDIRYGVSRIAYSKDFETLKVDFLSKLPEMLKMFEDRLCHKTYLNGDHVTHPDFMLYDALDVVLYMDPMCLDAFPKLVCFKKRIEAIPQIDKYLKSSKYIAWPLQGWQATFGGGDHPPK
T2 sequence (P62807 2-36): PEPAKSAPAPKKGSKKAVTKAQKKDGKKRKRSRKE

B1: myc-tagged human haspin (enzyme)
chain: AASLPGPGSRLFRTYGAADGRRQRRPGREAAQWFPPQDRRRFFNSSGSSDASIGDPSQSDDPDDPDDPDFPGSPVRRRRRCPGGRVPKDRPSLTVTPKRWKLRARPSLTVTPRRLGLRARPPQKCSTPCGPLRLPPFPSRDSGRLSPDLSVCGQPRDGDELGISASLFSSLASPCPGSPTPRDSVISIGTSACLVAASAVPSDLHLPEVSLDRASLPCSQEEATGGAKDTRMVHQTRASLRSVLFGLMNSGTPEDSEFRADGKNMRESCCKRKLVVGNGPEGPGLSSTGKRRATGQDSCQERGLQEAVRREHQEASVPKGRIVPRGTDRLERTRSSRKSKHQEATETSLLHSHRFKKGQKLGKDSFPTQDLTPLQNACFWTKTRASFSFHKKKIVTDVSEVCSIYTTATSLSGSLLSECSNRPVMNRTSGAPSSWHSSSMYLLSPLNTLSISNKKASDAEKVYGECSQKGPVPFSHCLPTEKLQRCEKIGEGVFGEVFQTIADHTPVAIKIIAIEGPDLVNGSHQKTFEEILPEIIISKELSLLSGEVCNRTEGFIGLNSVHCVQGSYPPLLLKAWDHYNSTKGSANDRPDFFKDDQLFIVLEFEFGGIDLEQMRTKLSSLATAKSILHQLTASLAVAEASLRFEHRDLHWGNVLLKKTSLKKLHYTLNGKSSTIPSCGLQVSIIDYTLSRLERDGIVVFCDVSMDEDLFTGDGDYQFDIYRLMKKENNNRWGEYHPYSNVLWLHYLTDKMLKQMTFKTKCNTPAMKQIKRKIQEFHRTMLNFSSATDLLCQHSLFK
notes: Expressed in transfected HEK293 or HeLa cells and used from cell lysates; also called myc-haspin; full-length haspin; not shown: myc tag encoded by the pcDNA3-derived plasmid pCANmyc1
binding result [1]: no binding | binding result [2]: no binding

Source: patent US20080096222A1 (BRIGHAM AND WOMEN S HOSPITAL, published 2008)
